Data taken from article PMC10786891, “Massively parallel profiling of RNA-targeting CRISPR-Cas13d”.
Changes are numbered by the printed parent chain. Numbers in names are those of the source.

T1: EsCas13d, nuclease-dead (Eubacterium siraeum, UniProt B0MS50, R295A;H300A;R849A;H854A)
T1 sequence: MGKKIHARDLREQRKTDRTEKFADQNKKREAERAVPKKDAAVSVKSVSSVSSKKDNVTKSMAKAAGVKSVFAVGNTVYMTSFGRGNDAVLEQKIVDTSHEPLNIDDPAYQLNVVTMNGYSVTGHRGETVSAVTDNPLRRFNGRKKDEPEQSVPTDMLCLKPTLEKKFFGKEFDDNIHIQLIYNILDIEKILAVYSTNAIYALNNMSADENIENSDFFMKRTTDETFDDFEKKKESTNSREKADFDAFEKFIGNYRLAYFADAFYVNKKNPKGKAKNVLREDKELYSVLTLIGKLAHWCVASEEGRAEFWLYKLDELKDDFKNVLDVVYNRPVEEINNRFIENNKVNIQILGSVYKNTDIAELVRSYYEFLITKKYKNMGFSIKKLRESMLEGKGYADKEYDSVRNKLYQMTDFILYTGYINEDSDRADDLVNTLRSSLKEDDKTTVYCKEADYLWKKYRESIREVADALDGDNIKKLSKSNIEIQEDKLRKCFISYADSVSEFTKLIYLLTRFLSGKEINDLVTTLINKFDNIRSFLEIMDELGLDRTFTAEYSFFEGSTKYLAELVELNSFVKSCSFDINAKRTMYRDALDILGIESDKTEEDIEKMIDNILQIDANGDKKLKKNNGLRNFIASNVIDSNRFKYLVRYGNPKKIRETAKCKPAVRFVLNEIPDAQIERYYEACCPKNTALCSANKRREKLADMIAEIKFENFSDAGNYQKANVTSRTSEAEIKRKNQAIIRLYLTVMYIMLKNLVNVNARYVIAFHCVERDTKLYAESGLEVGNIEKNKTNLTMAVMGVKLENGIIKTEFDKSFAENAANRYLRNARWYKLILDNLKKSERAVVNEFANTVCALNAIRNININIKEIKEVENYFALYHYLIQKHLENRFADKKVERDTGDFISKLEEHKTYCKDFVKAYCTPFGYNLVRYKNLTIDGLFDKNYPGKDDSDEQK

B1: target 1 A1C,C6G (mixed)
RNA 1: CACCCGUGCAAAAAUGCAGGGGUCUAAAACUGAGCGGAUAACCUCUCUAUGG
RNA 2: GGGAAUGGAUCCACAUCUACGAAUUCGUACCAUAGAGAGGUUAUCGGCUCCCCGAGAUCGGAAGAGCACACGU
B2: target 1 C4G (mixed)
RNA 1: B1 RNA 1
RNA 2: B1 RNA 2 with G46C, C48G, C51A
B3: target 1 U3G,C4A (mixed)
RNA 1: B1 RNA 1
RNA 2: B1 RNA 2 with G46C, C48A, U49G, C51A
B4: target 1 C6U,U11A (mixed)
RNA 1: B1 RNA 1
RNA 2: B1 RNA 2 with U41A, G46U, C51A
B5: target 1 insC 3' of 14,insC 3' of 1 (mixed)
RNA 1: B1 RNA 1
RNA 2: GGGAAUGGAUCCACAUCUACGAAUUCGUACCAUAGAGACGGUUAUCCGCUCACCCGAGAUCGGAAGAGCACACGU
B6: target 1 insU 3' of 6,insC 3' of 5 (mixed)
RNA 1: B1 RNA 1
RNA 2: GGGAAUGGAUCCACAUCUACGAAUUCGUACCAUAGAGAGGUUAUCCUGCCUCACCGAGAUCGGAAGAGCACACGU
B7: target 1 U8C,C22U (mixed)
RNA 1: B1 RNA 1
RNA 2: B1 RNA 2 with C30U, U44C, G46C, C51A
B8: target 1 insC 3' of 10,insA 3' of 2 (mixed)
RNA 1: B1 RNA 1
RNA 2: B5 RNA 2 with C39G, G41U, U43C, C53A
B9: target 1 del3 (mixed)
RNA 1: B1 RNA 1
RNA 2: GGGAAUGGAUCCACAUCUACGAAUUCGUACCAUAGAGAGGUUAUCCGCCACCGAGAUCGGAAGAGCACACGU
B10: target 1 A1U,C4G (mixed)
RNA 1: B1 RNA 1
RNA 2: B1 RNA 2 with G46C, C48G, C51U
B11: target 1 del2,del7 (mixed)
RNA 1: B1 RNA 1
RNA 2: GGGAAUGGAUCCACAUCUACGAAUUCGUACCAUAGAGAGGUUAUCGCUACCGAGAUCGGAAGAGCACACGU
B12: target 1 del8 (mixed)
RNA 1: B1 RNA 1
RNA 2: B9 RNA 2 with U44C, C46G, G47C, C48U
B13: target 1 A1C,C4G (mixed)
RNA 1: B1 RNA 1
RNA 2: B1 RNA 2 with G46C, C48G
B14: target 1 complement block 5-9 (mixed)
RNA 1: B1 RNA 1
RNA 2: B1 RNA 2 with A43U, U44A, C45G, G47C, C51A
B15: target 1 insC 3' of 10,insG 3' of 1 (mixed)
RNA 1: B1 RNA 1
RNA 2: B5 RNA 2 with C39G, G41U, U43C, C53G
B16: target 1 A9C,U10C (mixed)
RNA 1: B1 RNA 1
RNA 2: B1 RNA 2 with U42C, A43C, G46C, C51A
B17: target 1 U3G,U19G (mixed)
RNA 1: B1 RNA 1
RNA 2: B1 RNA 2 with U33G, G46C, U49G, C51A
B18: target 1 G17U (mixed)
RNA 1: B1 RNA 1
RNA 2: B1 RNA 2 with G35U, G46C, C51A
B19: target 1 C6G (mixed)
RNA 1: B1 RNA 1
RNA 2: B1 RNA 2 with C51A
B20: target 1 insC 3' of 10,insU 3' of 1 (mixed)
RNA 1: B1 RNA 1
RNA 2: B5 RNA 2 with C39G, G41U, U43C, C53U
B21: target 1 insC 3' of 10,insC 3' of 1 (mixed)
RNA 1: B1 RNA 1
RNA 2: B5 RNA 2 with C39G, G41U, U43C
B22: target 1 insG 3' of 6,insG 3' of 6 (mixed)
RNA 1: B1 RNA 1
RNA 2: B6 RNA 2 with U47G, C49G
B23: target 1 U8C,U19A (mixed)
RNA 1: B1 RNA 1
RNA 2: B1 RNA 2 with U33A, U44C, G46C, C51A
B24: target 1 U11G,C21U (mixed)
RNA 1: B1 RNA 1
RNA 2: B1 RNA 2 with C31U, U41G, G46C, C51A
B25: target 1 insC 3' of 14,insU 3' of 1 (mixed)
RNA 1: B1 RNA 1
RNA 2: B5 RNA 2 with C53U
B26: target 1 del1,del7 (mixed)
RNA 1: B1 RNA 1
RNA 2: B11 RNA 2 with A49C
B27: target 1 insC 3' of 15,insC 3' of 10 (mixed)
RNA 1: B1 RNA 1
RNA 2: GGGAAUGGAUCCACAUCUACGAAUUCGUACCAUAGAGCAGGUUCAUCCGCUCACCGAGAUCGGAAGAGCACACGU
B28: target 1 A1U,C21U (mixed)
RNA 1: B1 RNA 1
RNA 2: B1 RNA 2 with C31U, G46C, C51U
B29: target 1 C7U,C22A (mixed)
RNA 1: B1 RNA 1
RNA 2: B1 RNA 2 with C30A, C45U, G46C, C51A
B30: target 1 C2U,U8G (mixed)
RNA 1: B1 RNA 1
RNA 2: B1 RNA 2 with U44G, G46C, C50U, C51A
B31: target 1 A1G,C4G (mixed)
RNA 1: B1 RNA 1
RNA 2: B1 RNA 2 with G46C, C48G, C51G
B32: target 1 insU 3' of 12,insA 3' of 3 (mixed)
RNA 1: B1 RNA 1
RNA 2: B5 RNA 2 with C39G, G41U, C51A, A52C, C53A
B33: target 1 insU 3' of 21,insA 3' of 8 (mixed)
RNA 1: B1 RNA 1
RNA 2: GGGAAUGGAUCCACAUCUACGAAUUCGUACCUAUAGAGAGGUUAUACCGCUCACCGAGAUCGGAAGAGCACACGU
B34: target 1 U10G,A20C (mixed)
RNA 1: B1 RNA 1
RNA 2: B1 RNA 2 with A32C, U42G, G46C, C51A

What follows are binders tested against T1, EsCas13d, nuclease-dead (assay: crRNA (strand 1, pre-loaded); Mg2+; 40 mM Tris-HCl pH 7.5, 150 mM NaCl, 6 mM MgCl2, 1 mM DTT, 0.1% Tween-20, 0.2 mg/ml BSA; 25 C; 10 min per concentration, then washed). Settings: tags: His6-TwinStrep-SUMO cleaved; N-terminal SNAP kept (SNAP-Surface 488); label: 3' end held by stalled T7 RNA polymerase.

In order of rising Kd:
1. B3  4.19 ± 0.3 nM
2. B31  5.2 ± 0.34 nM
3. B2  5.3 ± 0.8 nM
4. B32  5.8 ± 0.4 nM
5. B10  6.11 ± 0.25 nM
6. B11  6.62 ± 0.24 nM
7. B28  7.6 ± 0.4 nM
8. B19  8.37 ± 0.31 nM
9. B24  9.4 ± 0.5 nM
10. B26  9.7 ± 0.6 nM
11. B12  10.5 ± 0.6 nM
12. B13  10.7 ± 1 nM
13. B29  11 ± 0.5 nM
14. B22  11.4 ± 0.5 nM
15. B1  12.1 ± 1.1 nM
16. B21  13.5 ± 1 nM
17. B6  13.9 ± 0.8 nM
18. B16  15.1 ± 1.5 nM
19. B15  15.5 ± 1.4 nM
20. B18  17 ± 1.3 nM
21. B30  17.1 ± 0.9 nM
22. B14  17.2 ± 0.7 nM
23. B27  17.3 ± 1.1 nM
24. B8  19.4 ± 2.4 nM
25. B20  26 ± 4 nM
26. B7  28 ± 4 nM
27. B9  28 ± 5 nM
28. B17  35.9 ± 2.7 nM
29. B4  38.2 ± 2.4 nM
30. B33  48 ± 4 nM
31. B5  50 ± 11 nM
32. B25  ~50 nM
33. B23  59 ± 9 nM
34. B34  76 ± 29 nM
